Laboratory results as given in PMC5599985.

Tests used:
[1] = molecular target: biotinylated synthetic peptide containing the C-terminal 16 amino-acid residues of harmonin-a1 including the PBM; experiment: SPR
[2] = molecular target: PDZ2 domain of harmonin-a1 (amino acids 197-308); experiment: NMR titration
[3] = molecular target: NTD-PDZ1 supramodule of harmonin-a1; experiment: NMR titration

Row | Kd [1] [µM] | Kd [2] [µM] | Kd [3] [µM] | Substance
1 | 61 | – | – | NTD-PDZ1 supramodule of harmonin-a1 (domain or fragment)
2 | – | 375 | 51 | synthetic peptide of the C-terminal 16 residues of harmonin-a1 (amino acids 533-548) including the PBM
